Laboratory results from patent EP4786492A1 (Simcere Zaiming Pharmaceutical Co., Ltd., dated 2026).
Substitutions are numbered along the chain they refer to.

T1: human DLL3-his protein (human, UniProt Q9NYJ7 27-492)
T1 construct: also called human DLL3 protein; DLL3 antigen protein; not shown: His tag
T1 sequence: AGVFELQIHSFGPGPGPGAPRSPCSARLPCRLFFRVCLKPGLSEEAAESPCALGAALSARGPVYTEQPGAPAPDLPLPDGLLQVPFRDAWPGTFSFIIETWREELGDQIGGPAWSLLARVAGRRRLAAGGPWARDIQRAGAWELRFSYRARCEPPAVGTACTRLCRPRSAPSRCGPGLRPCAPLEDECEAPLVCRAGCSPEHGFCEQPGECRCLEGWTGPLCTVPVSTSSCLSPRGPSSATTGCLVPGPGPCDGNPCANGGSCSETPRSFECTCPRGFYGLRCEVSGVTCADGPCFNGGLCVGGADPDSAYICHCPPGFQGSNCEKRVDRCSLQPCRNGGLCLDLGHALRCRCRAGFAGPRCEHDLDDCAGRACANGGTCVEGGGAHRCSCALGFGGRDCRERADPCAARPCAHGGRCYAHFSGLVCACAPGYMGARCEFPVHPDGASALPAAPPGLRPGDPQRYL

T2: monkey DLL3-his protein (cynomolgus monkey, UniProt Q9NYJ7 27-490 (human entry))
T2 construct: a bought cynomolgus DLL3-His (Acro DL3-C52H3) is also named; also called monkey DLL3 protein; cynomolgus monkey DLL3-His; not shown: His tag
T2 chain: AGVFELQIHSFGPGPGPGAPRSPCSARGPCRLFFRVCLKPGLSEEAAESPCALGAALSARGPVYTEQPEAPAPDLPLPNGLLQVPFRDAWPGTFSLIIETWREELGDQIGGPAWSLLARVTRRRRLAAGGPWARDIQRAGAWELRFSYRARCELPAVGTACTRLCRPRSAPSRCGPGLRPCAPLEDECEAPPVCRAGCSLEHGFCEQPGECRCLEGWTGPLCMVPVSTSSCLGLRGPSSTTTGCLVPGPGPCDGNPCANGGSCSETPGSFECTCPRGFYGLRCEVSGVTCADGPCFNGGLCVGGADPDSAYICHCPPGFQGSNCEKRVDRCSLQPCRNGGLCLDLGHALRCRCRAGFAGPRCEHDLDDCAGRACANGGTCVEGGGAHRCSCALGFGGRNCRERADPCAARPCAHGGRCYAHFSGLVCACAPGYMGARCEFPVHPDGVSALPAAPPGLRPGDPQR

T3: monkey DLL3 on CHO K1-cyno DLL3 cells (cynomolgus monkey)
T3 construct: also called monkey DLL3 recombinant cell line
T3 chain: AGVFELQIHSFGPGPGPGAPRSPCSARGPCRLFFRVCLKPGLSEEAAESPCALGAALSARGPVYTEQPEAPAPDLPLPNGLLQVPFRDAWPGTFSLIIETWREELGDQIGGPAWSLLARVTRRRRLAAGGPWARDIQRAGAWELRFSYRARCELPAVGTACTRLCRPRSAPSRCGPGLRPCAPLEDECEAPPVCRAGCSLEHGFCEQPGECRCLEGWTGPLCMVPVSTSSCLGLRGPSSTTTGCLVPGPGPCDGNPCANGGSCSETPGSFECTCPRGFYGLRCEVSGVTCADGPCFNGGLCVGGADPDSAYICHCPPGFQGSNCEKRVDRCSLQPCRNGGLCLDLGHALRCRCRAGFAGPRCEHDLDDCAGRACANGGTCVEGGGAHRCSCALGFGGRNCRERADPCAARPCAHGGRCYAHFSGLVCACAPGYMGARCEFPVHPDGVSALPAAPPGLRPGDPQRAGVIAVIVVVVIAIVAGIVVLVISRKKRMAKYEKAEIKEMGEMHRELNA

T4: human DLL1 protein (human, UniProt O00548 18-540, limits assumed)
T4 construct: bought protein; construct and tag not described; also called hDLL1
T4 sequence (looked up): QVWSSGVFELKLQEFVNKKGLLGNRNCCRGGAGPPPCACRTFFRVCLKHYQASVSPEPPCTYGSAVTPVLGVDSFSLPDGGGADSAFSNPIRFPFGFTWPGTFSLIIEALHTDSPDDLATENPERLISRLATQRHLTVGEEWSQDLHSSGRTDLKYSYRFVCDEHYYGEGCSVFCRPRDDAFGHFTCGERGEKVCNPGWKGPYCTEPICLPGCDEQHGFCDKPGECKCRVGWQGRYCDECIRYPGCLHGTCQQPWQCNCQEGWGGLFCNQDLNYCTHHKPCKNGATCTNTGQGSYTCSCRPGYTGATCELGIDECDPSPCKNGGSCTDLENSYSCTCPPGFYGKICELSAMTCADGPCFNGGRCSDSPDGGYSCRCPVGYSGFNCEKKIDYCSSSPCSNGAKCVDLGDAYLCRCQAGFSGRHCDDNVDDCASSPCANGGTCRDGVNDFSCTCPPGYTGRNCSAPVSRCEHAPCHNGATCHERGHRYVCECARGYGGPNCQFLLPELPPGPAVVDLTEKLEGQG

T5: human DLL3 protein (extracellular segment, His tag) (human, UniProt Q9NYJ7 27-492)
T5 construct: also called human DLL3-his protein; DLL3 antigen; not shown: His tag
T5 sequence: T1 sequence

B1: mab006 scFv-hFc (Fc fusion)
scFv (part 1 of 2): DVQITQSPSYLAASPGETITINCRATKSISKYLAWYQEKPGKTNKLLIFSGSTLQSGIPSRFRGSGSGTDFTLTISSLEPEDFAMYYCQQHHEYPYTFGGGTKLEIK
scFv (part 2 of 2): QVQLQQPGAELVRPGTSVKLSCKASGYTFTSYWMHWVRQRPGQGLEWIGVIDPSDSLANYNQEFKGKATLTVDTSSSTAYMQLSSLTSEDSAVYYCARDSTVVAPMDYWGQGTSVTVSS
notes: human-murine chimeric scFv-hFc, VL-linker-VH-human IgG1 Fc; not shown: linker; Fc fragment of human IgG1
B2: mab007 scFv-hFc (Fc fusion)
scFv (part 1 of 2): B1 scFv (part 1 of 2) with T26S, K27T, K39R, F49Y, E93V
scFv (part 2 of 2): B1 scFv (part 2 of 2) with R38K
notes: as for B1
B3: mab005 scFv-hFc (Fc fusion)
scFv (part 1 of 2): DIVLTQSPATLSVTPGDSVSLSCRASQSVSNDLHWYQQKSHESPRLLIKYASQSISGIPSRFSGSGSGTDFTLTINSVETEDFGMYFCQQSNNWPYTFGGGTKLEMK
scFv (part 2 of 2): QVQLQQSGAELMKPGASVTLSCKATGYTLPGYWIEWVKQRPGHGLEWIGEILPGSSSANYNEKFKGKATFTADTSSNTAYMQLSSLTTEDSAIYYCASTYGTSLDYWGQGTTLTVSS
notes: as for B1
B4: mab008 scFv-hFc (Fc fusion)
scFv (part 1 of 2): DIVMTQSQKFMSTSVGDRVSITCKASQNVGTAVAWYQQKPGQSPKLLIFSASIRYTGVPDRFTGSGSGTDFTLTISNMQSEDLADYFCQQYSSSPYTFGGGTKLEIK
scFv (part 2 of 2): EVQLQQSGPVLVKPGASVKMSCKASGYTFTDYYMNWVKRSHGKSLEWIGIINPYNGGTSYNQKFRGKATLTVDKSSNTAYMELNSLTSEDSAVYYCSRYDYDYDVEGAMDYWGQGTSVTVSS
notes: as for B1
B5: mab014 scFv-hFc (Fc fusion)
scFv (part 1 of 2): DIQMTQSSSSFSVSLGDRVTITCKASEDIYNRLAWYQQKPGNTPRLLISGATSLETGVPSRFSGSGSGKDFTLSITSLQTEDVATYYCQQYWSLPWTFGGGTKLEIK
scFv (part 2 of 2): EVQLHQSGPELVKPGTSVKISCKASGYTFTDYYMNWVKQSHGKSLEWIGDINPNHGDTGYNQKFTGKATLTVDKSSSTAYMELRSLTSEDSAVYYCARNFFYYGTTYGWYFDVWGTGTTVTVSS
notes: as for B1
B6: mab012 scFv-hFc (Fc fusion)
scFv (part 1 of 2): DVLMTQTPLSLPVSLGDQASISCRSSQSIVHSDGNTYLEWYLQKPGQSPKLLIYKVSNRFSGVPDRFSGSGSGTDFTLKISRVEAEDLGFYYCFQGSHVPFTFGSGTKLEIK
scFv (part 2 of 2): QVQLQQSGPELVKPGASVKISCKASGYTFTDYYIHWVKQRPGQGLEWIGWTLPGSGSPYYNEKFKGKATLTVDKSSSTAYMLLSSLTSEDSAVYFCARWHYYYGSSYHFDYWGQGTTLTVSS
notes: as for B1
B7: SC16.56 (antibody, human IgG1, kappa, V domains shown)
VH: QVQLVQSGAEVKKPGASVKVSCKASGYTFTNYGMNWVRQAPGQGLEWMGWINTYTGEPTYADDFKGRVTMTTDTSTSTAYMELRSLRSDDTAVYYCARIGDSSPSDYWGQGTLVTVSS
VL: EIVMTQSPATLSVSPGERATLSCKASQSVSNDVVWYQQKPGQAPRLLIYYASNRYTGIPARFSGSGSGTEFTLTISSLQSEDFAVYYCQQDYTSPWTFGQGTKLEIKR
notes: expressed in the complete IgG format; variable regions from US20200138969A1; also called control antibody
B8: BI3 (antibody, human IgG1, kappa, V domains shown)
VH: QVQLVQSGAEVKKPGASVKVSCKASGYTFTSYYVHWVRQAPGQGLEWMVIINPGGGTTSYAQKFLGRVTMTRDTSTNTVYMELKSLRSEDTAVYYCARGEAVTGNYFYYGMDVWGQGTTVTVSS
VL: DIQMTQSPSAMSASVGDRVTITCRASQGISNYLVWFQQKPGKAPKRLIYAVSSLYSGVPSRFSGSGSGTEFTLTISSLQPEDFATYYCLQHDSYPYTFGQGTKLEIKR
notes: expressed in the complete IgG format; variable regions from WO2019234220A1; also called control antibody
B9: Hab015VL4VH6b-hFc (Fc fusion)
scFv (part 1 of 2): NIVLTQSPATLSLSPGERATLSCKASENVGTYVSWFQQKPGQSPRLLIYGASNRYTGIPARFSGSGSGTDFTLTISSLEPEDFAVYYCGQFYSFPSTFGGGTKVEIK
scFv (part 2 of 2): EVQLVESGGGLVKPGGSLRLSCAASGITFSNFWMNWVRQAPEKGLEWVGQIRLKSDQYATHYAESVKGRFTISREDSKNTVYLQMNSLKTEDTAVYYCTTGYYFDYWGQGTTVTVSS
notes: humanized mab015, VL-linker-VH-human IgG1 Fc; also called Hab015L4H6b; not shown: linker; human IgG1 Fc fragment
B10: BI3 (antibody, human IgG1, kappa, V domains shown)
VH: B8 VH
VL: B8 VL
notes: control antibody in complete IgG format, variable regions from WO2019234220A1

Molecular target: T1, human DLL3-his protein
Assay: ELISA

| binding result | Binder |
| --- | --- |
| binds | B1 |
| binds | B2 |
| binds | B3 |
| binds | B4 |
| binds | B5 |
| binds | B6 |

Molecular target: T1, human DLL3-his protein
Assay: ELISA, coated DLL3-his

| binding result | Binder |
| --- | --- |
| binds | B7 |

Molecular target: T2, monkey DLL3-his protein
Assay: ELISA, coated DLL3-his

| binding result | Binder |
| --- | --- |
| binds | B8 |
| binds | B7 |

Molecular target: T3, monkey DLL3 on CHO K1-cyno DLL3 cells
Assay: FACS, CHO K1-cyno DLL3 cells

| binding result | Binder |
| --- | --- |
| binds | B1 |
| binds | B2 |
| binds | B3 |
| binds | B4 |
| binds | B5 |
| binds | B6 |

Molecular target: T4, human DLL1 protein
Assay: ELISA, maximum over 0.1-100 nM

| Emax of OD450 nm binding value [OD450] | Binder |
| --- | --- |
| 0.08 | B1 |
| 0.07 | B2 |
| 0.05 | B3 |
| 0.09 | B4 |
| 0.08 | B5 |
| 0.08 | B6 |

Molecular target: T6, human DLL4 protein (human, UniProt Q9NR61 27-524, limits assumed)
T6 construct: bought protein; construct and tag not described; also called hDLL4
Assay: ELISA, maximum over 0.1-100 nM

T6 sequence (Q9NR61 27-524 limits assumed): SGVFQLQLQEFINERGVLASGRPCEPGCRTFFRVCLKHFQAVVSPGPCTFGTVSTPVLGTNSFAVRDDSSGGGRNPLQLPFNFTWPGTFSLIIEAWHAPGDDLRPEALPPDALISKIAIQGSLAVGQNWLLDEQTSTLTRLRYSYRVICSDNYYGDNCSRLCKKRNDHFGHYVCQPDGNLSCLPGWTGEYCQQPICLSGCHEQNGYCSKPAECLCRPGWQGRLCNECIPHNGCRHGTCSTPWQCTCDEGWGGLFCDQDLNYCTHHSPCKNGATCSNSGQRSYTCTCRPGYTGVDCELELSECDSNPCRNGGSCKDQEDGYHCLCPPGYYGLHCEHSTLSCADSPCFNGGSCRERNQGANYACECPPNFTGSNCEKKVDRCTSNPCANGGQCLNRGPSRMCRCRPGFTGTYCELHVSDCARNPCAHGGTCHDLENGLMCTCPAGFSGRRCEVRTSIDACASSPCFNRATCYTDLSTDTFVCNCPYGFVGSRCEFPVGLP

| Emax of OD450 nm binding value [OD450] | Binder |
| --- | --- |
| 0.07 | B1 |
| 0.06 | B2 |
| 0.04 | B3 |
| 0.08 | B4 |
| 0.06 | B5 |
| 0.08 | B6 |

Molecular target: T1, human DLL3-his protein
Assay: SPR Biacore 8K, antibody captured on Protein A

| binding result | Binder |
| --- | --- |
| binds | B9 |

Molecular target: T5, human DLL3 protein (extracellular …)
Assay: SPR (Biacore 8K), antibody captured on Protein A chip, DLL3 antigen in solution, 1:1 Langmuir fit

| Kd [nM] | koff [s⁻¹] | kon [M⁻¹ s⁻¹] | Binder |
| --- | --- | --- | --- |
| 0.0497 | 4.7e-05 | 945000 | B10 |
